Laboratory results: patent publication US20020141999A1

Tests used:
[1] = target: human CD7, full length, on cells (human) (UniProt P09564); assay: flow cytometry, control Fc on Jurkat cells (express CD7), non-blocked
[2] = target: human CD7, full length, on cells (human) (UniProt P09564); assay: flow cytometry, control IgG staining of Jurkat cells (express CD7), non-blocked
[3] = target: human CD7, full length, on cells (human) (UniProt P09564); assay: flow cytometry, control IgG on Jurkat cells (express CD7), non-blocked
[4] = target: human CD7, full length, on cells (human) (UniProt P09564); assay: flow cytometry, antibody staining of Jurkat cells preincubated with HuK12-Fc (competitor)
[5] = target: human CD7, full length, on cells (human) (UniProt P09564); assay: flow cytometry, antibody staining of Jurkat cells (express CD7), non-blocked

Chain of human CD7, full length, on cells (human) (P09564 26-240 limits assumed): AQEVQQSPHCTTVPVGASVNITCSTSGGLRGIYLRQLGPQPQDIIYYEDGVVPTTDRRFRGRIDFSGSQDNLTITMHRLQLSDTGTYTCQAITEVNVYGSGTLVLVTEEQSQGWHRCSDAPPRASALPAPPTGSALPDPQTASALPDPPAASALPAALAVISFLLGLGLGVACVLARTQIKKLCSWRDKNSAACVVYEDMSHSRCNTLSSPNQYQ

Row | Substance | % Positive Cells [1] [%] | MFI [1] | % Positive Cells [2] [%] | MFI [2] | % Positive Cells [3] [%] | MFI [3] | % Positive Cells [4] [%] | MFI [4] | % Positive Cells [5] [%] | MFI [5]
1 | Control Fc (Fc fusion) | 3.4 | 18 |  |  |  |  |  |  |  | 
2 | IgG Control (antibody) |  |  | 3 | 18 | 3.6 | 17 |  |  |  | 
3 | anti-human CD7 monoclonal antibody Clone 4H9 (Pharmingen) |  |  |  |  |  |  | 4 | 19 | 88 | 38
4 | anti-human CD7 monoclonal antibody Clone 8118.1 (Immunotech) |  |  |  |  |  |  | 8 | 24 | 78 | 27
5 | anti-human CD7 monoclonal antibody Clone CLB-3A1 (Research Diagnostics, Inc.) |  |  |  |  |  |  | 63 | 24 | 80 | 30
6 | anti-human CD7 monoclonal antibody Clone M-T701 (Becton Dickinson) |  |  |  |  |  |  | 12 | 19 | 78 | 27
7 | anti-human CD7 monoclonal antibody Clone RFT-2a (Research Diagnostics, Inc.) |  |  |  |  |  |  | 9 | 18 | 71 | 23
8 | anti-human CD7 monoclonal antibody Clone WM31 (Research Diagnostics, Inc.) |  |  |  |  |  |  | 11 | 18 | 62 | 22
